Publication PMC11741606

What was measured:
[1] = target: PDCoV RBD (receptor-binding domain of the porcine deltacoronavirus spike protein); test: SPR
[2] = target: dog aminopeptidase N ectodomain fused with the Fc domain of human IgG (dog (Canis lupus familiaris)) (UniProt P79143); test: SPR; hFc-tagged APN from concentrated supernatant captured on a protein A sensor chip (>1000 RU); serially diluted RBD flowed over in PBST; BIAcore 8K, single-cycle mode; 1:1 Langmuir model; mean ± SD of three experiments
[3] = target: pig aminopeptidase N ectodomain fused with the Fc domain of human IgG (pig (Sus scrofa)) (UniProt P15145); test: as above
[4] = target: chicken aminopeptidase N ectodomain fused with the Fc domain of human IgG (chicken (Gallus gallus)) (UniProt O57579); test: as above
Chain of chicken aminopeptidase N ectodomain fused with the Fc domain of human IgG (chicken (Gallus gallus)) (O57579 32-972): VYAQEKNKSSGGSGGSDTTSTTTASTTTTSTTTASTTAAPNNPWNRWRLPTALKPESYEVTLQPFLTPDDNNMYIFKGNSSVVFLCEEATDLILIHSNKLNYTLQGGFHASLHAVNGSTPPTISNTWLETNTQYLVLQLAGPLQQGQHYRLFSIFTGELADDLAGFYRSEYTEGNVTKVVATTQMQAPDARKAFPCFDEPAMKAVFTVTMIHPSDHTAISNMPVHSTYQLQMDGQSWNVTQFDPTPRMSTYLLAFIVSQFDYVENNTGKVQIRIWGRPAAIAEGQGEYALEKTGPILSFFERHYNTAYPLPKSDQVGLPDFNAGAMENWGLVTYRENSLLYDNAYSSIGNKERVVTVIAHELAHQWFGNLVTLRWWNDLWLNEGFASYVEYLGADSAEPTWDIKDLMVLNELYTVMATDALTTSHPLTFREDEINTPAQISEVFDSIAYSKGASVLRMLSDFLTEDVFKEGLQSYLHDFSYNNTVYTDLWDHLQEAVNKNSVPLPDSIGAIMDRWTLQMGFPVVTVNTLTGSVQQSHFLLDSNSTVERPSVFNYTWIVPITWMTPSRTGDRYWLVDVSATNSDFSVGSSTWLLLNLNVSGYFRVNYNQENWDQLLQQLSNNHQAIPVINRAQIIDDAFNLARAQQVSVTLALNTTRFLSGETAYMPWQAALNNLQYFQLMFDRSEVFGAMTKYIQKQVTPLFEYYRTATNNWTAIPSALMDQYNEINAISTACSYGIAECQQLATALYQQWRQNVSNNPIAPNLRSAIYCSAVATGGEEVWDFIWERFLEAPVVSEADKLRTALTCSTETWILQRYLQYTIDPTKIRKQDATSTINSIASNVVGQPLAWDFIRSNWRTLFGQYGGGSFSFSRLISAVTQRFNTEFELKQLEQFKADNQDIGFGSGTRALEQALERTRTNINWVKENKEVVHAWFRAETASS

Chain of pig aminopeptidase N ectodomain fused with the Fc domain of human IgG (pig (Sus scrofa)) (P15145 33-963): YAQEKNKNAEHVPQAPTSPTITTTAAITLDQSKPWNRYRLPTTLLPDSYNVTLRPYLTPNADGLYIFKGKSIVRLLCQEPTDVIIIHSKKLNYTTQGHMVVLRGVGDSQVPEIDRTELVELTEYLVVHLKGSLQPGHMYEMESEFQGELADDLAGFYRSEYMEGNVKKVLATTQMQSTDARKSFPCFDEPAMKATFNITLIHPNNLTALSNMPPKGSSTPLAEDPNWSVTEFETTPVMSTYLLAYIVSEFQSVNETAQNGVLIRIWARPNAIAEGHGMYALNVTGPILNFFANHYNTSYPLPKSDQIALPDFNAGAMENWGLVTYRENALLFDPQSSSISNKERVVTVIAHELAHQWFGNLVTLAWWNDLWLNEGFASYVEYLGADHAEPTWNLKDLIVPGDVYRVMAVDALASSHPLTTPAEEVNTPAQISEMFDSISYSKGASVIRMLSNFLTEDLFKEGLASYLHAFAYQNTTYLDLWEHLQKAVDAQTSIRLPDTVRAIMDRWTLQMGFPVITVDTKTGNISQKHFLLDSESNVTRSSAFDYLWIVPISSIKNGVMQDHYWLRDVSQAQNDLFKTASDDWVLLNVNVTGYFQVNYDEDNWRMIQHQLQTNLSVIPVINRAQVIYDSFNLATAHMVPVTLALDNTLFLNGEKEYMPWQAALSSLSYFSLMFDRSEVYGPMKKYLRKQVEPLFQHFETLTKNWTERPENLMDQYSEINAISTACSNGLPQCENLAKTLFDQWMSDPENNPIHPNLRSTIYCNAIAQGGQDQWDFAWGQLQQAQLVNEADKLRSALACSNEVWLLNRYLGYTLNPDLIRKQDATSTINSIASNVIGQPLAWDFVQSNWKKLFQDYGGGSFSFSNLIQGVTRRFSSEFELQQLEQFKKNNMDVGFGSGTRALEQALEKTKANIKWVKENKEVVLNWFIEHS

Substance	Kd [1]	also measured
dog aminopeptidase N ectodomain fused with the Fc domain of human IgG (from UniProt P79143) R325N	10500 nM	–
TGEV RBD (receptor-binding domain of the transmissible gastroenteritis coronavirus spike protein) (domain or fragment)	–	Kd [2]: 20 nM; Kd [3]: 2770 nM
dog aminopeptidase N ectodomain fused with the Fc domain of human IgG (from UniProt P79143) Y797H	1220 nM	–
dog aminopeptidase N ectodomain fused with the Fc domain of human IgG (from UniProt P79143) H751R	1450 nM	–
dog aminopeptidase N ectodomain fused with the Fc domain of human IgG (from UniProt P79143) T754N	4060 nM	–
dog aminopeptidase N ectodomain fused with the Fc domain of human IgG (from UniProt P79143) D750E	148 nM	–
PDCoV RBD (receptor-binding domain of the porcine deltacoronavirus spike protein) (domain or fragment)	–	Kd [2]: 840 nM; Kd [4]: 3030 nM; Kd [3]: 12800 nM
dog aminopeptidase N ectodomain fused with the Fc domain of human IgG (from UniProt P79143) Y375F	350 nM	–
dog aminopeptidase N ectodomain fused with the Fc domain of human IgG (from UniProt P79143) E757D	423 nM	–
dog aminopeptidase N ectodomain fused with the Fc domain of human IgG (from UniProt P79143) Q753E	783 nM	–
